Reference: US20030108554A1 (published 2003)

T1: Goodpasture antigen binding protein (GPBP) (UniProt Q9Y5P4 1-624)
T1 construct: Protein kinase; Fusion parts are not written as pieces
T1 sequence (looked up): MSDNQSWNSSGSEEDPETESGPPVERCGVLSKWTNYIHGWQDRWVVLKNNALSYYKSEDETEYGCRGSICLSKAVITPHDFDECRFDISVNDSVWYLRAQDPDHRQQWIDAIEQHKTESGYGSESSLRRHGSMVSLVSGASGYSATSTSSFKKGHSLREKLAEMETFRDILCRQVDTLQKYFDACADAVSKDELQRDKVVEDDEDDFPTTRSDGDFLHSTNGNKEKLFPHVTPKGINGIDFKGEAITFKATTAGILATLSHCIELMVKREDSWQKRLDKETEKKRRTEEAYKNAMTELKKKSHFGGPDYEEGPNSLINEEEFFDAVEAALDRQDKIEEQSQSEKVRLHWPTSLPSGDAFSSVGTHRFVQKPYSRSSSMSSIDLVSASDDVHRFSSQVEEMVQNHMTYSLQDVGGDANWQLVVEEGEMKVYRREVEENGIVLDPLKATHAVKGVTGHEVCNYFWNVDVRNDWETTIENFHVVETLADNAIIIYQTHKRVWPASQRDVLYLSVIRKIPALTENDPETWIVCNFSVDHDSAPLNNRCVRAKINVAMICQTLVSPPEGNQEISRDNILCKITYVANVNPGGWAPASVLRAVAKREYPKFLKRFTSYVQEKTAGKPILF

T2: pol κ (UniProt Q9UBT6 1-870)
T2 construct: Tested in yeast two-hybrid (GAL4 domain fusion); also called primary protein product of the POLK
T2 sequence (looked up): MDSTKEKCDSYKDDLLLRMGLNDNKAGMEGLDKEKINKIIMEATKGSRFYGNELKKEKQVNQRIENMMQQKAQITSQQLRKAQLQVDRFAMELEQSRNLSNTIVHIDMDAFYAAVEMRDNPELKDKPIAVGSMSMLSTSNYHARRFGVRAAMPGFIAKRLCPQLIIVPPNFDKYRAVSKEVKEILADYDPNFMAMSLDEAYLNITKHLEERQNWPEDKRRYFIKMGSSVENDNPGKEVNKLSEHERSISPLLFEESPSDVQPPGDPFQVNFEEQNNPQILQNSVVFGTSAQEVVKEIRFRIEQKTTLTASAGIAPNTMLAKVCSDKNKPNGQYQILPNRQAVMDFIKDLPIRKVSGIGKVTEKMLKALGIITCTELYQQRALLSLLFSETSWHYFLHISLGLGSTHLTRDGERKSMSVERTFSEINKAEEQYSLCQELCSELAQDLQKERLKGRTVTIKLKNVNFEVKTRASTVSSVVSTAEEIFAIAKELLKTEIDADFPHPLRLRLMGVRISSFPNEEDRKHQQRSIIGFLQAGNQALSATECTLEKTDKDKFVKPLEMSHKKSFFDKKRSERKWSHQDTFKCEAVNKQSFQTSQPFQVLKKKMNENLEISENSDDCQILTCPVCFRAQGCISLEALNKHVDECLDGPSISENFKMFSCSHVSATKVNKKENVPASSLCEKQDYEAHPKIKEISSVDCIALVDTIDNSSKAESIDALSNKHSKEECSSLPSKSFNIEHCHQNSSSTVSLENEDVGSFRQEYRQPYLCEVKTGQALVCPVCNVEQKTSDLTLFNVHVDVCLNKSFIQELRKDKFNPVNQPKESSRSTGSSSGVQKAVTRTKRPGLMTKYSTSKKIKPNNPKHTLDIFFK

B1: I-20 (other)
chain: RDEVIGILKAEKMDLALLEAQYGFVTPKKVLEALQRDAFQAKSTPWQEDIYEKPMNELDKVVEKHKESYRRILGQLLVAEKSRRQTILELEEEKRKHKEYMEKSDEFICLLEQECERLKKLIDQEIKSQEEKEQEKEKRVTTLKEELTKLKSFALMVVDEQQRLTAQLTLQRQKIQELTTNAKETHTKLALAEARVQEEEQKATRLEKELQTQTTKFHQDQDTIMAKLTNEDSQNRQLQQKLAALSRQIDELEETNRSLRKAEEE
notes: Tested as GAL4 domain fusion in yeast two-hybrid and three-hybrid; fusion parts are not written as pieces; also called 265 residue polypeptide I-20
B2: GIP90 with deletion of the N terminal 240-residues (other)
chain: MVVDEQQRLTAQLTLQRQKIQELTTNAKETHTKLALAEARVQEEEQKATRLEKELQTQTTKFHQDQDTIMAKLTNEDSQNRQLQQKLAALSRQIDELEETNRSLRKAEEELQDIKEKISKGEYGNAGIMAEVEELRKRVLDMEGKDEELIKMEEQCRDLNKRLERETLQSKDFKLEVEKLSKRIMALEKLEDAFNKSKQECYSLKCNLEKERMTTKQLSQELESLKVRIKELEAIESRLEKTEFTLKEDLTKLKTLTVMFVDERKTMSEKLKKTEDKLQAASSQLQVEQNKVTTVTEKLIEETKRALKSKTDVEEKMYSVTKERDDLKNKLKAEEEKGNDLLSRVNMLKNRLQSLEAIEKDFLKNKLNQDSGKSTTALHQENNKIKELSQEVERLKLKLKDMKAIEDDLMKTEDEYETLERRYANERDKAQFLSKELEHVKMELAKYKLAEKTETSHEQWLFKRLQEEEAKSGHLSREVDALKEKIHEYMATEDLICHLQGDHSVLQKKTKSTRKQEQRFRKRD
notes: Deletion mutant in yeast two-hybrid (GAL4 domain fusion)

Legend:
[1] = target: the molecule itself; experiment: yeast two-hybrid with I-20 deletion mutants
Experimental: The production of additional I-20 deletion mutants and their use in specific two hybrid studies permitted the identification of two specific regions of I-20 that are essential for GPBP interaction as well as the identification of other residues directly involved but not essential for the interaction (FIG. 4).
Deletion mutants were obtained using specific primers and PCR, followed by cloning of the resulting cDNAs in the pGBT9 and pGAD424 vectors. The assays were performed in SFY526 or HF7c Saccharomyces cerevisiae strains, with pGBT9 as GAL4 binding domain vector and pGAD424 as GAL4 activation domain vector, by the lift colony assay procedure. Briefly, the yeast cells were co-transformed with constructs of both binding domain and activation domain vectors, and the co-transformants were selected in medium deficient in both tryptophan and leucine. After five days of incubation at 30° C. the colonies were tested for the expression of β-galactosidase with X-Gal substrate (0.75 mg/ml). […] When the assays were performed with the HF7c strain, the interactions were assessed by the lift colony assay procedure and by growth in medium deficient in histidine, tryptophan and leucine.

[2] = target: T1, Goodpasture antigen binding protein …; experiment: yeast two-hybrid, β-galactosidase colony lift
Experimental: Deletion mutants were obtained using specific primers and PCR, followed by cloning of the resulting cDNAs in the pGBT9 and pGAD424 vectors. The assays were performed in SFY526 or HF7c Saccharomyces cerevisiae strains, with pGBT9 as GAL4 binding domain vector and pGAD424 as GAL4 activation domain vector, by the lift colony assay procedure. Briefly, the yeast cells were co-transformed with constructs of both binding domain and activation domain vectors, and the co-transformants were selected in medium deficient in both tryptophan and leucine. After five days of incubation at 30° C. the colonies were tested for the expression of β-galactosidase with X-Gal substrate (0.75 mg/ml). […] When the assays were performed with the HF7c strain, the interactions were assessed by the lift colony assay procedure and by growth in medium deficient in histidine, tryptophan and leucine. For yeast three-hybrid system, we used the pBRIDGE vector, which allows the conditional expression of a third protein apart from the usual GAL4 binding and activation domain-fusion proteins of the two-hybrid system. In this case, the expression of GPBP or I-20 or GIP90 was driven by Met25 promoter, active in absence of methionine. In these experiments, the transformed SFY526 cells were plated in medium deficient in tryptophan, leucine and methionine, and subjected to the colony lift assay after five days at 30° C. […]

[3] = target: T2, pol κ; experiment: yeast two-hybrid
[4] = target: T1, Goodpasture antigen binding protein …; experiment: yeast two-hybrid

Row | Binder | binding result [1] | binding result [2] | binding result [3] | binding result [4]
1 | B1 | binds | binds | no binding | –
2 | B2 | – | – | – | no binding
